Experimental findings from paper PMC3607351 (Structure (London, England : 1993), 2012) are described below.

Broadly, the Kd is the free concentration of one partner at which half of the binding sites on the other are occupied at equilibrium, for simple one-to-one binding. Read a low Kd as higher affinity. Broadly, the stoichiometry N is the number of molecules, sites or subunits per partner or assembly.

Data set [1] addresses Recombinant mouse RANKL (residues 162-316), receptor-binding ectodomain, trimer (mouse) (UniProt O35235). The data set is described as follows: SPR. A general note: In SPR one partner is held on a chip, and binding of the other changes the refractive index at the surface.
In data set [2] the target is T1, Extracellular cytokine-binding domain of mouse RANK (all four CRDs, residues 1-198) (mouse, UniProt O35305 31-198).
T1 sequence (looked up): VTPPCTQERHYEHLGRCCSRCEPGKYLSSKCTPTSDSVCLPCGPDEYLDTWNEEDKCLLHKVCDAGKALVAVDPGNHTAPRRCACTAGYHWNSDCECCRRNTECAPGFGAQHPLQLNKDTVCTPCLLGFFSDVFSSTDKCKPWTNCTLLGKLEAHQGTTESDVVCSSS
The data set is described as follows: SPR.

The data set “crystal structure” concerns the molecule itself. Briefly: crystal structure.

Take “Mouse OPG F96A CRD fragment (CRDs 1 through 4) (from UniProt O08712 22-191) (domain or fragment)”: in data set [1], the fold decrease in affinity against wild-type OPG CRDs turned out to be 60 fold and the fold slower on-rate than wild-type OPG CRDs amounted to 30 fold.

B1: Recombinant mouse RANKL (residues 162-316), receptor-binding ectodomain, trimer (ligand, UniProt O35235-1 162-316, looked up)
chain: QPFAHLTINAASIPSGSHKVTLSSWYHDRGWAKISNMTLSNGKLRVNQDGFYYLYANICFRHHETSGSVPTDYLQLMVYVVKTSIKIPSSHNLMKGGSTKNWSGNSEFHFYSINVGGFFKLRAGEEISIQVSNPSLLDPDQDATYFGAFKVQDID
In data set [2], B1 showed a dissociation constant (Kd) of 2090 nM. Further, the “stoichiometry N” value in “crystal structure” is 3.
